Data published in paper PMC11259757.
pKd: −log10 of the molar value. Read-outs that look alike come from different tables or passages of the source.

Columns and labels:
[1] = molecular target: FcγRIIa-131H extracellular domain, biotinylated (human) (UniProt P12318); assay: BLI
[2] = molecular target: FcγRIIa-131R extracellular domain, biotinylated (human); assay: BLI
[3] = molecular target: FcγRIIIa-176V extracellular domain, biotinylated (human) (UniProt P08637); assay: BLI
[4] = molecular target: FcγRIIb extracellular domain, biotinylated (human) (UniProt P31994); assay: BLI
[5] = molecular target: FcγRIIIa-176F extracellular domain, biotinylated (human) (UniProt P08637); assay: BLI
[6] = molecular target: FcγRIIa-131H extracellular domain, biotinylated (human) (UniProt P12318); assay: BLI; remark: listed apart in the source
[7] = molecular target: FcγRIIa-131R extracellular domain, biotinylated (human); assay: BLI; remark: listed apart in the source
[8] = molecular target: FcγRIIIa-176V extracellular domain, biotinylated (human) (UniProt P08637); assay: BLI; remark: listed apart in the source
[9] = molecular target: FcγRIIb extracellular domain, biotinylated (human) (UniProt P31994); assay: BLI; remark: listed apart in the source
[10] = molecular target: FcγRIIIa-176F extracellular domain, biotinylated (human) (UniProt P08637); assay: BLI; remark: listed apart in the source
[11] = molecular target: 3f8 IgG with Fc variant 3a-11, displayed on CHO cells (human); assay: flow cytometry on cells
[12] = molecular target: 3f8 IgG with Fc variant V12, displayed on CHO cells (human); assay: flow cytometry on cells
[13] = molecular target: 3f8 IgG with Fc variant 3a-14, displayed on CHO cells (human); assay: flow cytometry on cells
[14] = molecular target: 3f8 IgG with Fc variant 3a-2, displayed on CHO cells (human); assay: flow cytometry on cells
[15] = molecular target: 3f8 IgG with Fc variant 3a-7, displayed on CHO cells (human); assay: flow cytometry on cells
[16] = molecular target: 3f8 IgG with Fc variant 3a-4, displayed on CHO cells (human); assay: flow cytometry on cells
[17] = molecular target: 3f8 IgG with Fc variant 3a-1, displayed on CHO cells (human); assay: flow cytometry on cells
[18] = molecular target: 3f8 IgG with Fc variant 3a-5, displayed on CHO cells (human); assay: flow cytometry on cells
[19] = molecular target: 3f8 IgG with Fc variant 3a-8, displayed on CHO cells (human); assay: flow cytometry on cells
[20] = molecular target: 3f8 IgG with Fc variant 3a-10, displayed on CHO cells (human); assay: flow cytometry on cells
[21] = molecular target: 3f8 IgG with Fc variant 3a-3, displayed on CHO cells (human); assay: flow cytometry on cells
[22] = molecular target: 3f8 IgG with Fc variant LPL, displayed on CHO cells (human); assay: flow cytometry on cells
[23] = molecular target: 3f8 IgG with Fc variant 3a-9, displayed on CHO cells (human); assay: flow cytometry on cells

Chain of FcγRIIa-131R extracellular domain, biotinylated (human) (P12318 34-217): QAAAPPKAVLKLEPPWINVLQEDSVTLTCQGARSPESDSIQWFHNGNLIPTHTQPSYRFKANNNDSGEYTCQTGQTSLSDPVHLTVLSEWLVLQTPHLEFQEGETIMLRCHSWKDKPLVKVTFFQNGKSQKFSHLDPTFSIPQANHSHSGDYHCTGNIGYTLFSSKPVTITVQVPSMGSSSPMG

## trastuzumab IgG with WT Fc (antibody)
[1]
  pKd: 6.41
[2]
  pKd: 6.28
[3]
  pKd: 6.41
[4]
  pKd: 6.24
[5]
  pKd: 6.11
[6]
  pKd: 6.62
[7]
  pKd: 6.48
[8]
  pKd: 6.37
[9]
  pKd: 6.24
[10]
  pKd: 6.19

## FcγRIIb extracellular domain, biotinylated (from UniProt P31994 43-217) (receptor)
[11]
  FcγRIIb MFI / TNFα MFI: 12.9 MFI ratio
[12]
  FcγRIIb^High cells (%): 7.39%

## FcγRIIIa-176F extracellular domain, biotinylated (from UniProt P08637 17-208) (receptor)
[13]
  FcγRIIIa-176F^High cells (%): 1.15%
[14]
  FcγRIIIa-176F MFI / TNFα MFI: 11.1 MFI ratio
  FcγRIIIa-176F^High cells (%): 0.61%
[15]
  FcγRIIIa-176F^High cells (%): 1.15%
[16]
  FcγRIIIa-176F MFI / TNFα MFI: 8.6 MFI ratio
  FcγRIIIa-176F^High cells (%): 0.93%
[17]
  FcγRIIIa-176F MFI / TNFα MFI: 8 MFI ratio
  FcγRIIIa-176F^High cells (%): 0.1%
[18]
  FcγRIIIa-176F MFI / TNFα MFI: 9.6 MFI ratio
  FcγRIIIa-176F^High cells (%): 0.8%
[19]
  FcγRIIIa-176F MFI / TNFα MFI: 13.2 MFI ratio
  FcγRIIIa-176F^High cells (%): 2.23%
[20]
  FcγRIIIa-176F MFI / TNFα MFI: 6.9 MFI ratio
[21]
  FcγRIIIa-176F MFI / TNFα MFI: 9.3 MFI ratio
  FcγRIIIa-176F^High cells (%): 0.81%
[22]
  FcγRIIIa-176F MFI / TNFα MFI: 7.5 MFI ratio
  FcγRIIIa-176F^High cells (%): 0.25%
[23]
  FcγRIIIa-176F MFI / TNFα MFI: 9.2 MFI ratio
